Biological target: T1, GFP-SSH1 (human, UniProt Q8WYL5 1-1049)
T1 construct: Slingshot homolog 1 (SSH1); also called EGFP-SSH1; WT SSH1; source: HeLa, transiently transfected, in fixed cells
T1 sequence (looked up): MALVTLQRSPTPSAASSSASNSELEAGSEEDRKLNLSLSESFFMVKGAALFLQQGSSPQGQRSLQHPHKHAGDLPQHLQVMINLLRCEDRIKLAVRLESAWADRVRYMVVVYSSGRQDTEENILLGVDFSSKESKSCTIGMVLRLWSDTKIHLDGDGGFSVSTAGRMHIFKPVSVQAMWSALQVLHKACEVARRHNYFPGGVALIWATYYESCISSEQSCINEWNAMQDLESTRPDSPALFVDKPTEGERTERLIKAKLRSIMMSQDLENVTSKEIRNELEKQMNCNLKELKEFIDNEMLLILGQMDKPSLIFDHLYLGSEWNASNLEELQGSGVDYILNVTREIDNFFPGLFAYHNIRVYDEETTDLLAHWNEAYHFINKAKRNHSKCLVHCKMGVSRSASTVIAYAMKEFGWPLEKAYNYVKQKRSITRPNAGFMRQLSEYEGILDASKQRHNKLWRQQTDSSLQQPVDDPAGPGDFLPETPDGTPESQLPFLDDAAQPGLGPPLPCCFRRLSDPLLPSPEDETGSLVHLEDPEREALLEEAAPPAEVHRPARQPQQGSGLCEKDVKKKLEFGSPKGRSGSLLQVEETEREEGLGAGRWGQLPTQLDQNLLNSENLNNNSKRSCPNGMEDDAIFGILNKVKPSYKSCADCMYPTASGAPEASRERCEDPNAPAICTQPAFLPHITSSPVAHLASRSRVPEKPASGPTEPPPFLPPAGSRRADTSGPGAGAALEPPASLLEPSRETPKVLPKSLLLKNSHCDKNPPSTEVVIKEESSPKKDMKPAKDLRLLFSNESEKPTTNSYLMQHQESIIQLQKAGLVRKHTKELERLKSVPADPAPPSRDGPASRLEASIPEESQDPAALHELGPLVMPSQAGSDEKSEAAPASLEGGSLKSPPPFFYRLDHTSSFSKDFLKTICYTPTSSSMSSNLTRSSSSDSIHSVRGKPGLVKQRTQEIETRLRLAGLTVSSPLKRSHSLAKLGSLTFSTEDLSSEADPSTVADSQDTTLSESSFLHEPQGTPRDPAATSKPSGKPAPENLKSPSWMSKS
Experiment: proximity ligation; in situ PLA (Duolink) in transiently transfected HeLa cells, fixed 24 h after transfection; rabbit GFP-specific and mouse Flag-specific primary antibodies; spot area per cell quantified by automated microscopy
Conditions: partners not purified

area covered by PLA spots, against neighbouring GFP-negative cells: ~4 fold
B1: Flag-NOD1 (receptor, human, UniProt Q9Y239 1-953, looked up)
chain: MEEQGHSEMEIIPSESHPHIQLLKSNRELLVTHIRNTQCLVDNLLKNDYFSAEDAEIVCACPTQPDKVRKILDLVQSKGEEVSEFFLYLLQQLADAYVDLRPWLLEIGFSPSLLTQSKVVVNTDPVSRYTQQLRHHLGRDSKFVLCYAQKEELLLEEIYMDTIMELVGFSNESLGSLNSLACLLDHTTGILNEQGETIFILGDAGVGKSMLLQRLQSLWATGRLDAGVKFFFHFRCRMFSCFKESDRLCLQDLLFKHYCYPERDPEEVFAFLLRFPHVALFTFDGLDELHSDLDLSRVPDSSCPWEPAHPLVLLANLLSGKLLKGASKLLTARTGIEVPRQFLRKKVLLRGFSPSHLRAYARRMFPERALQDRLLSQLEANPNLCSLCSVPLFCWIIFRCFQHFRAAFEGSPQLPDCTMTLTDVFLLVTEVHLNRMQPSSLVQRNTRSPVETLHAGRDTLCSLGQVAHRGMEKSLFVFTQEEVQASGLQERDMQLGFLRALPELGPGGDQQSYEFFHLTLQAFFTAFFLVLDDRVGTQELLRFFQEWMPPAGAATTSCYPPFLPFQCLQGSGPAREDLFKNKDHFQFTNLFLCGLLSKAKQKLLRHLVPAAALRRKRKALWAHLFSSLRGYLKSLPRVQVESFNQVQAMPTFIWMLRCIYETQSQKVGQLAARGICANYLKLTYCNACSADCSALSFVLHHFPKRLALDLDNNNLNDYGVRELQPCFSRLTVLRLSVNQITDGGVKVLSEELTKYKIVTYLGLYNNQITDVGARYVTKILDECKGLTHLKLGKNKITSEGGKYLALAVKNSKSISEVGMWGNQVGDEGAKAFAEALRNHPSLTTLSLASNGISTEGGKSLARALQQNTSLEILWLTQNELNDEVAESLAEMLKVNQTLKHLWLIQNQITAKGTAQLADALQSNTGITEICLNGNLIKPEEAKVYEDEKRIICF
notes: NOD1; the Flag-tagged plasmid is not described in the methods; source: HeLa, transiently transfected, in fixed cells

Source: article PMC4154870, “The Cofilin Phosphatase Slingshot Homolog 1 (SSH1) Links NOD1 Signaling to Actin Remodeling” (PLoS Pathogens, 2014)
